Data published in patent US20050244864A1, “Development and use of fluorescent probes of unbound analytes” (priority 2004, published 2005).
Residue numbers refer to the chain shown, from its start. Numbers in names are those of the source.

B1: L72A: acrylodan-labeled rI-FABP clone with L72A (the template mutein) (protein, listed as Rattus norvegicus)
chain: AFDGTWKVDRNENYEKFMEKMGINVVKRKLGAHDNLKLTITQEGNKFTVKESSNFRNIDVVFELGVDFAYSAADGTELTGTWTMEGNKLVGKFKRVDNGKELIAVREISGNELIQTYTYEGVEAKRIFKKDRGHHHHHH
modifications: acrylodan label; MUTAGEN (72)...(72) rat intestinal fatty acid binding protein with alanine substitution for leucine at position 72
B2: Y117S, L72A: acrylodan-labeled rI-FABP mutein Y117S, L72A (protein)
chain: AFDGTWKVDRNENYEKFMEKMGINVVKRKLGAHDNLKLTITQEGNKFTVKESSNFRNIDVVFELGVDFAYSAADGTELTGTWTMEGNKLVGKFKRVDNGKELIAVREISGNELIQTSTYEGVEAKRIFKKE
B3: L1P2 F7: acrylodan-labeled rI-FABP mutein: Y14 I, L38 wt, L72 G, Y117 V (protein, UniProt P02693 2-132, looked up, variant Y14I L72G Y117V)
Fatty acid-binding protein, …: B2 chain with Y14I, A72G, S117V
modifications: acrylodan label
notes: acrylodan-labeled rI-FABP mutein: Y14 I, L38 wt, L72 G, Y117 V
B4: L1P12 F12: acrylodan-labeled rI-FABP mutein: Y14 L, L38 wt, L72 G, Y117 V (protein, UniProt P02693 2-132, looked up, variant Y14L L72G Y117V)
Fatty acid-binding protein, …: B2 chain with Y14L, A72G, S117V
modifications: acrylodan label
notes: acrylodan-labeled rI-FABP mutein: Y14 L, L38 wt, L72 G, Y117 V
B5: L1P1 F7: acrylodan-labeled rI-FABP mutein: Y14 L, L38 M, L72 wt, Y117 F (protein, UniProt P02693 2-132, looked up, variant Y14L L38M Y117F)
Fatty acid-binding protein, …: B2 chain with Y14L, L38M, A72L, S117F
modifications: acrylodan label
notes: acrylodan-labeled rI-FABP mutein: Y14 L, L38 M, L72 wt, Y117 F
B6: L1P9 G10: acrylodan-labeled rI-FABP mutein: Y14 wt, L38 I, L72 G, Y117 wt (protein, UniProt P02693 2-132, looked up, variant L38I L72G)
Fatty acid-binding protein, …: B2 chain with L38I, A72G, S117Y
modifications: acrylodan label
B7: L1P14 A9: acrylodan-labeled rI-FABP mutein: Y14 L, L38 wt, L72 G, Y117 I (protein, UniProt P02693 2-132, looked up, variant Y14L L72G Y117I)
Fatty acid-binding protein, …: B2 chain with Y14L, A72G, S117I
modifications: acrylodan label
notes: acrylodan-labeled rI-FABP mutein: Y14 L, L38 wt, L72 G, Y117 I
B8: L1P3 D6: acrylodan-labeled rI-FABP mutein: Y14 L, L38 wt, L72 wt, Y117 wt (protein, UniProt P02693 2-132, looked up, variant Y14L)
Fatty acid-binding protein, …: B2 chain with Y14L, A72L, S117Y
modifications: acrylodan label
B9: L72G: acrylodan-labeled rI-FABP mutein L72G (protein)
chain: B2 chain with A72G, S117Y
B10: L1P7 B11: acrylodan-labeled rI-FABP mutein: Y14 I, L38 I, L72 V, Y117 wt (protein, UniProt P02693 2-132, looked up, variant Y14I L38I L72V)
Fatty acid-binding protein, …: B2 chain with Y14I, L38I, A72V, S117Y
modifications: acrylodan label
notes: acrylodan-labeled rI-FABP mutein: Y14 I, L38 I, L72 V, Y117 wt
B11: L1P12 G10: acrylodan-labeled rI-FABP mutein: Y14 I, L38 wt, L72 wt, Y117 wt (protein, UniProt P02693 2-132, looked up, variant Y14I)
Fatty acid-binding protein, …: B2 chain with Y14I, A72L, S117Y
modifications: acrylodan label
B12: A73I, L72A: acrylodan-labeled rI-FABP mutein A73I, L72A (protein)
chain: B2 chain with A73I, S117Y
B13: A73F, L72A: acrylodan-labeled rI-FABP mutein A73F, L72A (protein)
chain: B2 chain with A73F, S117Y
B14: L1P17 A8: acrylodan-labeled rI-FABP mutein: Y14 wt, L38 M, L72 G, Y117 F (protein, UniProt P02693 2-132, looked up, variant L38M L72G Y117F)
Fatty acid-binding protein, …: B2 chain with L38M, A72G, S117F
modifications: acrylodan label
notes: acrylodan-labeled rI-FABP mutein: Y14 wt, L38 M, L72 G, Y117 F
B15: L1P11 F12: acrylodan-labeled rI-FABP mutein: Y14 L, L38 I, L72 wt, Y117 wt (protein, UniProt P02693 2-132, looked up, variant Y14L L38I)
Fatty acid-binding protein, …: B2 chain with Y14L, L38I, A72L, S117Y
modifications: acrylodan label
B16: L72M: acrylodan-labeled rI-FABP mutein L72M (protein)
chain: B2 chain with A72M, S117Y

Assay: Probe fluorescence ratio response to palmitate:BSA complex, relative to ADIFAB2 (ΔR/ΔRAD2)
Assay type: binding
Settings: fluorescence response (R-Ro) relative to ADIFAB2; palmitate
Procedure: (§1) The intensity ratio (“R” value) for a given probe is determined. The ratio is calculated using the following formula: R=Fλ1/Fλ2 wherein, Fλ1, is the measured fluorescence intensities (intensity of sample with probe present minus intensity of sample without probe present) at wavelength 1 and Fλ2 is the measured fluorescence intensities (intensity of sample with probe present minus intensity of sample without probe present) at wavelength 2. Then, for a given probe, ΔR, the difference in R value between the measurement in the presence of the analyte and in the absence of the analyte, is calculated as follows: ΔR=R+analyte−R0 The ΔR value for a given probe is then compared to a reference probe, for example, ADIFAB or ADIFAB2, by ΔR/ΔRreference. This value is an indication of how dissimilar the new probe (derived by mutation of the template) is to the reference. By this method, probes with new and useful characteristics may be identified. Measurements of fluorescence intensities are obtained using standard techniques.
(§2) Mutant probes were screened in 96-well plates by fluorescence response to five fatty acids: arachidonate, linolenate, linoleate, oleate, and palmitate. Each fatty acid was prepared as a complex with BSA by slow addition of 50 mM stocks of fatty acid sodium salts at pH 11 to 600 μM BSA in HEPES buffer. During the formation of complexes, 15 μL aliquots were periodically measured with the reference probe, ADIFAB2, to determine the ΔR value upon excitation at 375 nm and fluorescence emission at 550 and 457 nm using a Fluorolog-3 spectrofluorometer (Jobin Yvon) (Richieri et al, Molecular and Cellular Biochemistry (1999), 192:87-94 & Richieri et al, J. Biol. Chem. (1996), 271:31068-31074). Complexes were prepared such that the final ΔR was approximately 0.4 which correspond to [FFAu] ranging from 100 to 1000 nM depending on FFA type. These complexes buffer or clamp the FFAu levels at fixed values and therefore ensure the accurate comparison of different probes with the same FFAu concentrations. In contrast, addition of FFAu alone (i.e. uncomplexed FFA) introduces considerable uncertainty in comparing different probes because the FFAu level will be affected by binding to the dispensing device, the walls of the multi-well plates and to the probe itself. Thus, the terms “buffer” and “clamp” as used in this particular context herein are taken to mean the ability of a carrier macromolecule to complex with an unbound metabolite so that the unbound metabolite is presented accurately for measurement purposes and is prevented from non-specific binding such as binding to laboratory apparatus.
(§3) Plates were prepared and read in two stages. First, complexes and fatty acid free BSA were diluted to 6 μM BSA in HEPES and added to the 96-well plate at 300 μL per well. A MultiProbe II HT (Perkin Elmer) (an automated liquid handling system) was used to facilitate plate preparation for high throughput screening, but any automated or manual pipetting system will suffice. The background fluorescence was then measured at the same wavelengths as used for ADIFAB2 using a Fluorolog-3 spectrofluorometer with an external Micromax 384 fluorescence plate reader (Jobin Yvon). In the second stage, 30 μL aliquots of the mutant probes were added to multiple wells of the plate, one for each fatty acid and one with fatty acid free BSA only, and the fluorescence intensity at each wavelength was again measured on the plate reader. After subtraction of the background fluorescence, the fluorescence ratio of each well was calculated.
(§4) The fluorescence response was quantitatively compared to ADIFAB2 to search for changes in magnitude and fatty acid profile; for example the response to one fatty acid relative to another. For each probe the ratio differences (AR) between wells with each fatty acid compared to a corresponding well with fatty acid free BSA were recorded. […]

| Molecule | ΔR/ΔRAD2 PA |
| --- | --- |
| B1 | 1.02 |
| B2 | 0.55 |
| B3 | 0.1 |
| B4 | 0.1 |
| B5 | 0.5 |
| B6 | 0.4 |
| B7 | 0.2 |
| B8 | 0.5 |
| B9 | 0.26 |
| B10 | 0.8 |
| B11 | 0.8 |
| B12 | −0.04 |
| B13 | 1.13 |
| B14 | 0.4 |
| B15 | 0.7 |
| B16 | 1.32 |

Assay: Probe fluorescence ratio response to arachidonate:BSA complex, relative to ADIFAB2 (ΔR/ΔRAD2)
Assay type: binding
Settings: fluorescence response (R-Ro) relative to ADIFAB2; arachidonate
Procedure: as §1, §2, §3, §4

| Molecule | ΔR/ΔRAD2 AA |
| --- | --- |
| B1 | 1.12 |
| B2 | 1.35 |
| B3 | 0.9 |
| B4 | 0.9 |
| B5 | 0.9 |
| B6 | 1.0 |
| B7 | 0.8 |
| B8 | 0.9 |
| B9 | 0.62 |
| B10 | 0.7 |
| B11 | 0.8 |
| B12 | 0.38 |
| B13 | 1.21 |
| B14 | 1.3 |
| B15 | 1.0 |
| B16 | 1.31 |

Assay: Probe fluorescence ratio response to linoleate:BSA complex, relative to ADIFAB2 (ΔR/ΔRAD2)
Assay type: binding
Settings: fluorescence response (R-Ro) relative to ADIFAB2; linoleate
Procedure: as §1, §2, §3, §4

| Molecule | ΔR/ΔRAD2 LA |
| --- | --- |
| B1 | 1.14 |
| B2 | 1.42 |
| B3 | 0.6 |
| B4 | 0.5 |
| B5 | 0.9 |
| B6 | 0.8 |
| B7 | 0.8 |
| B8 | 0.8 |
| B9 | 0.48 |
| B10 | 0.9 |
| B11 | 0.9 |
| B12 | −0.04 |
| B13 | 1.23 |
| B14 | 0.8 |
| B15 | 1.1 |
| B16 | 1.46 |

Assay: Probe fluorescence ratio response to linolenate:BSA complex, relative to ADIFAB2 (ΔR/ΔRAD2)
Assay type: binding
Settings: fluorescence response (R-Ro) relative to ADIFAB2; linolenate
Procedure: as §1, §2, §3, §4

| Molecule | ΔR/ΔRAD2 LNA |
| --- | --- |
| B1 | 1.16 |
| B2 | 1.07 |
| B3 | 0.5 |
| B4 | 0.5 |
| B5 | 1.0 |
| B6 | 0.7 |
| B7 | 0.8 |
| B8 | 0.9 |
| B9 | 0.48 |
| B10 | 0.9 |
| B11 | 1.0 |
| B12 | 0.03 |
| B13 | 1.86 |
| B14 | 0.7 |
| B15 | 1.2 |
| B16 | 1.35 |

Assay: Probe fluorescence ratio response to oleate:BSA complex, relative to ADIFAB2 (ΔR/ΔRAD2)
Assay type: binding
Settings: fluorescence response (R-Ro) relative to ADIFAB2; oleate
Procedure: as §1, §2, §3, §4

| Molecule | ΔR/ΔRAD2 OA |
| --- | --- |
| B1 | 1.15 |
| B2 | 1.19 |
| B3 | 0.3 |
| B4 | 0.3 |
| B5 | 0.5 |
| B6 | 0.9 |
| B7 | 0.4 |
| B8 | 0.5 |
| B9 | 0.52 |
| B10 | 0.4 |
| B11 | 0.5 |
| B12 | −0.04 |
| B13 | 0.73 |
| B14 | 0.7 |
| B15 | 0.7 |
| B16 | 1.49 |
